Assay results as given in article PMC7619206, “Human mitochondrial glutathione transferases: Kinetic parameters and accommodation of a mitochondria-targeting group in substrates” (Bioorganic & medicinal chemistry, 2024).

Assays:
[1] = biological target: T1, hGSTK1-1 (Homo sapiens, UniProt Q9Y2Q3); assay: UV/Vis initial rates of GS-conjugate formation, Michaelis-Menten fit; settings: read-out: hGSTK1-1; 10 mM GSH, 0.1 M HEPES pH 8.0, 30 °C
T1 construct: gene GSTK1
T1 sequence (Q9Y2Q3 1-226): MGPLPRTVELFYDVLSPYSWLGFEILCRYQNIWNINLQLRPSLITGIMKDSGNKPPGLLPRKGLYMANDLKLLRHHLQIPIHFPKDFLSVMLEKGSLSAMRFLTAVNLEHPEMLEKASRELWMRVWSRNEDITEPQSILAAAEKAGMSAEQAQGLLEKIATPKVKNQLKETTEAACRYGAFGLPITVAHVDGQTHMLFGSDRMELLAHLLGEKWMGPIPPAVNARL

[2] = biological target: T2, hGSTA4-4 (Homo sapiens, UniProt O15217); assay: as above; settings: read-out: hGSTA4-4; 10 mM GSH, 0.1 M HEPES pH 8.0, 30 °C
T2 construct: gene GSTA4
T2 sequence (O15217 1-222): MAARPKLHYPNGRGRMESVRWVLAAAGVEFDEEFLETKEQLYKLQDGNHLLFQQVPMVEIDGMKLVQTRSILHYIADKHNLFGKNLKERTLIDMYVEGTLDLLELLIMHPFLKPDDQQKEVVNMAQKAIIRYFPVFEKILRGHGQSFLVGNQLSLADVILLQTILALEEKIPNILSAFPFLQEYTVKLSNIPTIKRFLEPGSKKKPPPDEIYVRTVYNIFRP
From the text: UV/Vis initial rates of GS-conjugate formation, Michaelis-Menten fit on hGSTA4-4

[3] = biological target: T3, hGSTA1-1 (Homo sapiens, UniProt P08263); assay: as above; settings: read-out: KM (mM) / hGSTA1-1; 10 mM GSH, 0.1 M HEPES pH 8.0, 30 °C
T3 construct: gene GSTA1
T3 sequence (P08263 1-222): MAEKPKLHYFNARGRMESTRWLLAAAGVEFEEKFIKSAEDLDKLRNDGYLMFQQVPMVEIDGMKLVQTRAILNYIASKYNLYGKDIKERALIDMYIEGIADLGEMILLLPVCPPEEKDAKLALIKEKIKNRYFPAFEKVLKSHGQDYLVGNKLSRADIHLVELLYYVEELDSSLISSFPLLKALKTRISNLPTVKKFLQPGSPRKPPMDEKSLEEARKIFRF
From the text: UV/Vis initial rates of GS-conjugate formation, Michaelis-Menten fit on hGSTA1-1

[4] = substrate: COC(=O)c1cc([N+](=O)[O-])ccc1Cl; assay: UV/Vis initial rates of GS-conjugate formation, Lineweaver-Burk fit; assay type: biochemical, Homo sapiens; settings: 10 mM GSH, 0.1 M HEPES pH 8.0, 30 °C
From the text: (§1) UV/Vis initial rates of GS-conjugate formation, Lineweaver-Burk fit on hGSTA4-4

[5] = substrate: COC(=O)c1ccc(Cl)c([N+](=O)[O-])c1; assay: as above; assay type: biochemical, Homo sapiens; settings: 10 mM GSH, 0.1 M HEPES pH 8.0, 30 °C
From the text: as §1

[6] = substrate: O=[N+]([O-])c1cc([N+](=O)[O-])c(NCCCC[P+](c2ccccc2)(c2ccccc2)c2ccccc2)cc1Cl; assay: purified protein; settings: 10 mM GSH, 0.1 M HEPES pH 8.0, 30 °C
[7] = substrate: O=C(NCCCCC[P+](c1ccccc1)(c1ccccc1)c1ccccc1)c1ccc(Cl)c([N+](=O)[O-])c1; assay: purified protein; settings: 10 mM GSH, 0.1 M HEPES pH 8.0, 30 °C
[8] = substrate: COC(=O)c1cc([N+](=O)[O-])ccc1Cl; assay: UV/Vis initial rates of GS-conjugate formation, Lineweaver-Burk fit; assay type: biochemical, Homo sapiens; settings: 10 mM GSH, 0.1 M HEPES pH 8.0, 30 °C; remark: listed apart in the source
From the text: (§2) UV/Vis initial rates of GS-conjugate formation, Lineweaver-Burk fit on hGSTA1-1

[9] = substrate: COC(=O)c1ccc(Cl)c([N+](=O)[O-])c1; assay: as above; assay type: biochemical, Homo sapiens; settings: 10 mM GSH, 0.1 M HEPES pH 8.0, 30 °C; remark: listed apart in the source
From the text: as §2

[10] = substrate: O=C(NCCCCC[P+](c1ccccc1)(c1ccccc1)c1ccccc1)c1cc([N+](=O)[O-])ccc1Cl; assay: purified protein; settings: 10 mM GSH, 0.1 M HEPES pH 8.0, 30 °C
[11] = substrate: COC(=O)c1cc([N+](=O)[O-])ccc1Cl; assay: UV/Vis initial rates of GS-conjugate formation, Lineweaver-Burk fit; assay type: biochemical, Homo sapiens; settings: 10 mM GSH, 0.1 M HEPES pH 8.0, 30 °C; remark: listed apart in the source
From the text: (§3) UV/Vis initial rates of GS-conjugate formation, Lineweaver-Burk fit on hGSTK1-1

[12] = substrate: COC(=O)c1ccc(Cl)c([N+](=O)[O-])c1; assay: as above; assay type: biochemical, Homo sapiens; settings: 10 mM GSH, 0.1 M HEPES pH 8.0, 30 °C; remark: listed apart in the source
From the text: as §3

O=[N+]([O-])c1ccc(Cl)c([N+](=O)[O-])c1 [compound 1, 1-chloro-2,4-dinitrobenzene]
Km [1]: 1900 ± 320 µM
Km [2]: 253 ± 52 µM
Km [3]: 0.128 ± 0.018 mM

B1: hGSTA4-4 (Homo sapiens) (protein)
chain: MAARPKLHYPNGRGRMESVRWVLAAAGVEFDEEFLETKEQLYKLQDGNHLLFQQVPMVEIDGMKLVQTRSILHYIADKHNLFGKNLKERTLIDMYVEGTLDLLELLIMHPFLKPDDQQKEVVNMAQKAIIRYFPVFEKILRGHGQSFLVGNQLSLADVILLQTILALEEKIPNILSAFPFLQEYTVKLSNIPTIKRFLEPGSKKKPPPDEIYVRTVYNIFRP
notes: N-terminal 6xHis tag and TEV site (pNIC-28-BsaI), not cleaved; E. coli BL21(DE3), codon-optimised synthetic gene; Ni-NTA
Km [4]: 949 ± 27 µM
kcat [4]: (5.61 ± 0.37) x 10^-2 s^-1
Km [5]: 3580 ± 90 µM
kcat [5]: 0.521 ± 0.203 s⁻¹
Km [6]: 142 ± 9 µM
kcat [6]: 4.59 ± 0.08 s⁻¹
Km [7]: 826 ± 5 µM
kcat [7]: 2.13 ± 0.05 s⁻¹

B2: hGSTA1-1 (Homo sapiens) (protein)
chain: MAEKPKLHYFNARGRMESTRWLLAAAGVEFEEKFIKSAEDLDKLRNDGYLMFQQVPMVEIDGMKLVQTRAILNYIASKYNLYGKDIKERALIDMYIEGIADLGEMILLLPVCPPEEKDAKLALIKEKIKNRYFPAFEKVLKSHGQDYLVGNKLSRADIHLVELLYYVEELDSSLISSFPLLKALKTRISNLPTVKKFLQPGSPRKPPMDEKSLEEARKIFRF
notes: as for B1
Km [8]: 1670 ± 50 µM
kcat [8]: 2.31 ± 0.55 s⁻¹
Km [9]: 2050 ± 770 µM
kcat [9]: 8.85 ± 2.79 s⁻¹
Km [6]: 146 ± 20 µM
kcat [6]: 14.7 ± 0.6 s⁻¹
Km [10]: 720 ± 17 µM
kcat [10]: (4.67 ± 0.19) x 10^-2 s^-1
Km [7]: 441 ± 10 µM
kcat [7]: 9.50 ± 0.45 s⁻¹

B3: hGSTK1-1 (Homo sapiens) (protein)
chain: MGPLPRTVELFYDVLSPYSWLGFEILCRYQNIWNINLQLRPSLITGIMKDSGNKPPGLLPRKGLYMANDLKLLRHHLQIPIHFPKDFLSVMLEKGSLSAMRFLTAVNLEHPEMLEKASRELWMRVWSRNEDITEPQSILAAAEKAGMSAEQAQGLLEKIATPKVKNQLKETTEAACRYGAFGLPITVAHVDGQTHMLFGSDRMELLAHLLGEKWMGPIPPAVNARL
notes: as for B1
Km [6]: 360 ± 67 µM
kcat [6]: 0.103 ± 0.008 s⁻¹
Km [11]: 1540 ± 30 µM
kcat [11]: (9.45 ± 0.68) x 10^-2 s^-1
Km [12]: 301 ± 8 µM
kcat [12]: 0.106 ± 0.008 s⁻¹
